Experimental data taken from paper PMC2475608.

What follows are binders tested against EcoR124I MTase (M2S1 complex) (UniProt P10484) (assay: native gel or EMSA).
Chain of UniProt P10484 (P10484 whole entry, chain 1 of 2): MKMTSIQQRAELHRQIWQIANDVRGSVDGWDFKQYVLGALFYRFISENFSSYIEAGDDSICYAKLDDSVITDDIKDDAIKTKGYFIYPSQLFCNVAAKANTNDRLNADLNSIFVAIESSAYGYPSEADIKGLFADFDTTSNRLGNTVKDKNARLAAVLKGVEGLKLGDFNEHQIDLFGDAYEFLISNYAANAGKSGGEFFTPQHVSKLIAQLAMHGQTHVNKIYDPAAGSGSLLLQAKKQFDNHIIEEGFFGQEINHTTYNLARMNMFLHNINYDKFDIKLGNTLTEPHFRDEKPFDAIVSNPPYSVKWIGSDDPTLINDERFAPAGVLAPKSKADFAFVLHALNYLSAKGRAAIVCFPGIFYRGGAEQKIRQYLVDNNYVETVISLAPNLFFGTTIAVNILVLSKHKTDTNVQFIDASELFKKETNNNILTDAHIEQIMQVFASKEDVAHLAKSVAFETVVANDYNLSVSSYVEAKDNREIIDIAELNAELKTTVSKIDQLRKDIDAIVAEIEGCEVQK
Chain of UniProt P10484 (P10485 whole entry, chain 2 of 2, further chain): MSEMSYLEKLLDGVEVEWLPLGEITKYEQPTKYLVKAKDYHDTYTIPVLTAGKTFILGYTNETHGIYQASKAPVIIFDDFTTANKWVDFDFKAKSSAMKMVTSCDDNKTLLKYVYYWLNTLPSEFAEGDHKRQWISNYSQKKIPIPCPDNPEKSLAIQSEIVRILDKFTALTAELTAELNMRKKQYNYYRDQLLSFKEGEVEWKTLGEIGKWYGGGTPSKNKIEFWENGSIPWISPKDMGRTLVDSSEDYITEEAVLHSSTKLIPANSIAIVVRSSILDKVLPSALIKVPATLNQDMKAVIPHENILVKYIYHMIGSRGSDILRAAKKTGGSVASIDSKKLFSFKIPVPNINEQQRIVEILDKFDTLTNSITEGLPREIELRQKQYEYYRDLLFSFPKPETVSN

Binder | K1,app (first HsdR on the DNA-bound MTase, R1 complex) [nM]
EcoR124I HsdR subunit, wild type (enzyme) MTHQTHTIAESNNFIVLDKYIKAEPTGDSYQSESDLERELIQDLRNQGYEFISVKSQSAMLANVREQLQNLNGVVFNDSEWRRFTEQYLDNPSDGILDKTRKIHIDYICDFIFDDERLENIYLIDKKNLMRNKVQIIQQFEQAGSHANRYDVTILVNGLPLVQIELKKRGVAIREAFNQIHRYSKESFNSENSLFKYLQLFVISNGTDTRYFANTTKRDKNSFDFTMNWAKSDNTLIKDLKDFTATCFQKHTLLNVLVNYSVFDSSQTLLVMRPYQIAATERILWKIKSSFTAKNWSKPESGGYIWHTTGSGKTLTSFKAARLATELDFIDKVFFVVDRKDLDYQTMKEYQRFSPDSVNGSENTAGLKRNLDKDDNKIIVTTIQKLNNLMKAESDLPVYNQQVVFIFDECHRSQFGEAQKNLKKKFKRYYQFGFTGTPIFPENALGSETTASVFGRELHSYVITDAIRDEKVLKFKVDYNDVRPQFKSLETETDEKKLSAAENQQAFLHPMRIQEITQYILNNFRQKTHRTFPGSKGFNAMLAVSSVDAAKAYYATFKRLQEEAANKSATYKPLRIATIFSFAANEEQNAIGEISDETFDTSAMDSSAKEFLDAAIREYNSHFKTNFSTDSNGFQNYYRDLAQRVKNQDIDLLIVVGMFLTGFDAPTLNTLFVDKNLRYHGLMQAFSRTNRIYDATKTFGNIVTFRDLERSTIDAITLFGDKNTKNVVLEKSYTEYMEGFTDAATGEAKRGFMTVVSELEQRFPDPTSIESEKEKKDFVKLFGEYLRAENILQNYDEFATLKALQQIDLSDPVAVEKFKAEHYVDDEKFAELQTIRLPADRKIQDYRSAYNDIRDWQRREKEAEKKEKSTTDWDDVVFEVDLLKSQEINLDYILGLIFEHNRQNKGKGEMIEEVKRLIRSSLGNRAKEGLVVDFIQQTNLDDLPDKASIIDAFFTFAQREQQREAEALIKEENLNEDAAKRYIRTSLKREYATENGTELNETLPKLSPLNPQYKTKKQAVFQKIVSFIEKFKGVGGKI | 15
EcoR124I HsdR Y183A (enzyme) MTHQTHTIAESNNFIVLDKYIKAEPTGDSYQSESDLERELIQDLRNQGYEFISVKSQSAMLANVREQLQNLNGVVFNDSEWRRFTEQYLDNPSDGILDKTRKIHIDYICDFIFDDERLENIYLIDKKNLMRNKVQIIQQFEQAGSHANRYDVTILVNGLPLVQIELKKRGVAIREAFNQIHRASKESFNSENSLFKYLQLFVISNGTDTRYFANTTKRDKNSFDFTMNWAKSDNTLIKDLKDFTATCFQKHTLLNVLVNYSVFDSSQTLLVMRPYQIAATERILWKIKSSFTAKNWSKPESGGYIWHTTGSGKTLTSFKAARLATELDFIDKVFFVVDRKDLDYQTMKEYQRFSPDSVNGSENTAGLKRNLDKDDNKIIVTTIQKLNNLMKAESDLPVYNQQVVFIFDECHRSQFGEAQKNLKKKFKRYYQFGFTGTPIFPENALGSETTASVFGRELHSYVITDAIRDEKVLKFKVDYNDVRPQFKSLETETDEKKLSAAENQQAFLHPMRIQEITQYILNNFRQKTHRTFPGSKGFNAMLAVSSVDAAKAYYATFKRLQEEAANKSATYKPLRIATIFSFAANEEQNAIGEISDETFDTSAMDSSAKEFLDAAIREYNSHFKTNFSTDSNGFQNYYRDLAQRVKNQDIDLLIVVGMFLTGFDAPTLNTLFVDKNLRYHGLMQAFSRTNRIYDATKTFGNIVTFRDLERSTIDAITLFGDKNTKNVVLEKSYTEYMEGFTDAATGEAKRGFMTVVSELEQRFPDPTSIESEKEKKDFVKLFGEYLRAENILQNYDEFATLKALQQIDLSDPVAVEKFKAEHYVDDEKFAELQTIRLPADRKIQDYRSAYNDIRDWQRREKEAEKKEKSTTDWDDVVFEVDLLKSQEINLDYILGLIFEHNRQNKGKGEMIEEVKRLIRSSLGNRAKEGLVVDFIQQTNLDDLPDKASIIDAFFTFAQREQQREAEALIKEENLNEDAAKRYIRTSLKREYATENGTELNETLPKLSPLNPQYKTKKQAVFQKIVSFIEKFKGVGGKI | 15
EcoR124I HsdR Q179K (enzyme) MTHQTHTIAESNNFIVLDKYIKAEPTGDSYQSESDLERELIQDLRNQGYEFISVKSQSAMLANVREQLQNLNGVVFNDSEWRRFTEQYLDNPSDGILDKTRKIHIDYICDFIFDDERLENIYLIDKKNLMRNKVQIIQQFEQAGSHANRYDVTILVNGLPLVQIELKKRGVAIREAFNKIHRYSKESFNSENSLFKYLQLFVISNGTDTRYFANTTKRDKNSFDFTMNWAKSDNTLIKDLKDFTATCFQKHTLLNVLVNYSVFDSSQTLLVMRPYQIAATERILWKIKSSFTAKNWSKPESGGYIWHTTGSGKTLTSFKAARLATELDFIDKVFFVVDRKDLDYQTMKEYQRFSPDSVNGSENTAGLKRNLDKDDNKIIVTTIQKLNNLMKAESDLPVYNQQVVFIFDECHRSQFGEAQKNLKKKFKRYYQFGFTGTPIFPENALGSETTASVFGRELHSYVITDAIRDEKVLKFKVDYNDVRPQFKSLETETDEKKLSAAENQQAFLHPMRIQEITQYILNNFRQKTHRTFPGSKGFNAMLAVSSVDAAKAYYATFKRLQEEAANKSATYKPLRIATIFSFAANEEQNAIGEISDETFDTSAMDSSAKEFLDAAIREYNSHFKTNFSTDSNGFQNYYRDLAQRVKNQDIDLLIVVGMFLTGFDAPTLNTLFVDKNLRYHGLMQAFSRTNRIYDATKTFGNIVTFRDLERSTIDAITLFGDKNTKNVVLEKSYTEYMEGFTDAATGEAKRGFMTVVSELEQRFPDPTSIESEKEKKDFVKLFGEYLRAENILQNYDEFATLKALQQIDLSDPVAVEKFKAEHYVDDEKFAELQTIRLPADRKIQDYRSAYNDIRDWQRREKEAEKKEKSTTDWDDVVFEVDLLKSQEINLDYILGLIFEHNRQNKGKGEMIEEVKRLIRSSLGNRAKEGLVVDFIQQTNLDDLPDKASIIDAFFTFAQREQQREAEALIKEENLNEDAAKRYIRTSLKREYATENGTELNETLPKLSPLNPQYKTKKQAVFQKIVSFIEKFKGVGGKI | 10
EcoR124I HsdR Y183F (enzyme) MTHQTHTIAESNNFIVLDKYIKAEPTGDSYQSESDLERELIQDLRNQGYEFISVKSQSAMLANVREQLQNLNGVVFNDSEWRRFTEQYLDNPSDGILDKTRKIHIDYICDFIFDDERLENIYLIDKKNLMRNKVQIIQQFEQAGSHANRYDVTILVNGLPLVQIELKKRGVAIREAFNQIHRFSKESFNSENSLFKYLQLFVISNGTDTRYFANTTKRDKNSFDFTMNWAKSDNTLIKDLKDFTATCFQKHTLLNVLVNYSVFDSSQTLLVMRPYQIAATERILWKIKSSFTAKNWSKPESGGYIWHTTGSGKTLTSFKAARLATELDFIDKVFFVVDRKDLDYQTMKEYQRFSPDSVNGSENTAGLKRNLDKDDNKIIVTTIQKLNNLMKAESDLPVYNQQVVFIFDECHRSQFGEAQKNLKKKFKRYYQFGFTGTPIFPENALGSETTASVFGRELHSYVITDAIRDEKVLKFKVDYNDVRPQFKSLETETDEKKLSAAENQQAFLHPMRIQEITQYILNNFRQKTHRTFPGSKGFNAMLAVSSVDAAKAYYATFKRLQEEAANKSATYKPLRIATIFSFAANEEQNAIGEISDETFDTSAMDSSAKEFLDAAIREYNSHFKTNFSTDSNGFQNYYRDLAQRVKNQDIDLLIVVGMFLTGFDAPTLNTLFVDKNLRYHGLMQAFSRTNRIYDATKTFGNIVTFRDLERSTIDAITLFGDKNTKNVVLEKSYTEYMEGFTDAATGEAKRGFMTVVSELEQRFPDPTSIESEKEKKDFVKLFGEYLRAENILQNYDEFATLKALQQIDLSDPVAVEKFKAEHYVDDEKFAELQTIRLPADRKIQDYRSAYNDIRDWQRREKEAEKKEKSTTDWDDVVFEVDLLKSQEINLDYILGLIFEHNRQNKGKGEMIEEVKRLIRSSLGNRAKEGLVVDFIQQTNLDDLPDKASIIDAFFTFAQREQQREAEALIKEENLNEDAAKRYIRTSLKREYATENGTELNETLPKLSPLNPQYKTKKQAVFQKIVSFIEKFKGVGGKI | 14
